Laboratory results published in patent CN114437205A.

Molecular target: SARS S-his (SARS)

B1: 抗体CT150 (antibody, V domains shown)
VH: QEQLVESGGGVVQPGRSLRLSCAASGFTFSSYAMHWVRQAPGEGLEWVALISYDGDNKYYADSVKGRFTISRDNSKTTLFLQMNSLRAEDTAVYYCARDRGSYFYGVDVWGQGATVTVSS
VL: DIQLTQSPSFLSASVGDRVTITCRASQDINSYLAWYQQKPGKAPKLLIYAASTLQSGVPSRFSGSGSGTEFTLTISSLQPEDFATYYCQQLNSYPIFTFGPGTKVDIK
  EC50: 0.129 µg/mL
